According to patent publication US20240317834A1, “COMPOSITIONS AND METHODS FOR NEUROLOGICAL DISEASES” (CODA BIOTHERAPEUTICS, INC., priority 2020, published 2024):

Tested on: Lenti-X 293T cells
Assay: YFP fluorescence quenching anion reporter plate reader assay of engineered receptors stimulated with acetylcholine or a non-native ligand
Assay type: cell-based
Procedure, shortened: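 Lenti-X 293T cells carrying a YFP anion reporter were transiently transfected with channel DNA and assayed the next day in HEPES-buffered ECS at pH 7.2. Ligand (acetylcholine or non-native ligand) was added in NaI-substituted ECS. Percent quench was the mean of the last 10 s relative to the 15 s pre-addition baseline.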

B1: CODA1047: engineered chimeric LGIC receptor, R101F, Y210V in SEQ ID NO: 33 (protein)
chain: MRCSPGGVWLALAASLLHVSLQGEFQRKLYKELVKNYNPLERPVANDSQPLTVYFSLSLLQIMDVDEKNQVLTTNIWLQMSWTDHYLQWNVSEYPGVKTVFFPDGQIWKPDILLYNSADERFDATFHTNVLVNSSGHCQYLPPGIFKSSCPMDLKNFPMDVQTCKLKFGSWSYGGWSLDLQMQEADISGYIPNGEWDLVGIPGKRSERFVECCKEPYPDVTFTVTMRRRMGYYLIQMYIPSLLIVILSWISFWINMDAAPARVGLGITTVLTMTTQSSGSRASLPKVSYVKAIDIWMAVCLLFVFSALLEYAAVNFVSRQHKELLRFRRKRRHHKSPMLNLFQEDEAGEGRFNFSAYGMGPACLQAKDGISVKGANNSNTTNPPPAPSKSPEEMRKLFIQRAKKIDKISRIGFPMAFLIFNMFYWIIYKIVRREDVHNQ
modifications: synthetic sequence of chimeric LGIC
YFP fluorescence quenching using CNL001 (1 nM CNL001, first column): −7.82%
YFP fluorescence quenching using CNL001 (1 nM CNL001, second column): −8.382%
YFP fluorescence quenching using TC-5619/Bradanicline (1 nM brd): −5.548%
YFP fluorescence quenching using TC-5619/Bradanicline (3 nM brd): −9.432%
YFP fluorescence quenching using Varenicline (3 nM var, first column): −3.035
YFP fluorescence quenching using Varenicline (3 nM var, second column): −0.786
YFP fluorescence quenching using CNL001 (10 nM CNL001, first column): −5.381%
YFP fluorescence quenching using CNL001 (10 nM CNL001, second column): −1.431%
YFP fluorescence quenching using TC-5619/Bradanicline (10 nM brd): −3.068%
YFP fluorescence quenching using TC-5619/Bradanicline (30 nM brd): 2.368%
YFP fluorescence quenching using Varenicline (30 nM var, first column): −5.181
YFP fluorescence quenching using Varenicline (30 nM var, second column): 0.669
YFP fluorescence quenching using CNL001 (50 nM CNL001, first column): −0.999%
YFP fluorescence quenching using CNL001 (50 nM CNL001, second column): 3.909%
YFP fluorescence quenching using ABT-126 (50 nM abt): −14.1%
YFP fluorescence quenching using CNL001 (100 nM CNL001, first column): −0.823%
YFP fluorescence quenching using CNL001 (100 nM CNL001, second column): −5.885%
YFP fluorescence quenching using ABT-126 (100 nM abt): −11.72%
YFP fluorescence quenching using TC-5619/Bradanicline (100 nM brd): 47.529%
YFP fluorescence quenching using ABT-126 (300 nM abt): −12.98%
YFP fluorescence quenching using TC-5619/Bradanicline (300 nM brd): 74.413%
YFP fluorescence quenching using Varenicline (300 nM var, first column): −2.748
YFP fluorescence quenching using Varenicline (300 nM var, second column): −6.708
YFP fluorescence quenching using Varenicline (500 nM var, first column): −9.123
YFP fluorescence quenching using Varenicline (500 nM var, second column): −9.869
YFP fluorescence quenching using CNL001 (1 uM CNL001, first column): 1.638%
YFP fluorescence quenching using CNL001 (1 uM CNL001, second column): 3.483%
YFP fluorescence quenching using ABT-126 (1 uM abt): −15.09%
YFP fluorescence quenching using Varenicline (1 uM var, first column): −6.702
YFP fluorescence quenching using Varenicline (1 uM var, second column): −7.26
percent quench of YFP fluorescence, 30 nM TC-6683 (TC-6683 30 nM): −24.195%
percent quench of YFP fluorescence, 300 nM TC-6683 (TC-6683 300 nM): −24.234%
percent quench of YFP fluorescence, 3 uM TC-6683 (TC-6683 3 uM): −21.291%
percent quench of YFP fluorescence, 30 uM TC-6683 (TC-6683 30 uM): −16.363%
percent quench of YFP fluorescence, 100 uM TC-6683 (TC-6683 100 uM): −24.9%
percent quench of YFP fluorescence, 10 uM ach (acetylcholine 10 uM): −4.26%
percent quench of YFP fluorescence, 100 uM ach (acetylcholine 100 uM): −13.05%
percent quench of YFP fluorescence, 300 uM ach (acetylcholine 300 uM): −11.73%
percent quench of YFP fluorescence, 500 uM ach (acetylcholine 500 uM): −10.75%
percent quench of YFP fluorescence, 1 mM ach (acetylcholine 1 mM): −8.81%
percent quench of YFP fluorescence, 3 mM ach (acetylcholine 3 mM): −6.77%
percent quench of YFP fluorescence, 10 mM ach (acetylcholine 10 mM): −1.03%
